Biological target: the molecule itself
Test: crystal structure

B1: Thermoanaerobacter brockii Can2 E341A mutant (TbrCan2^E341A), catalytically inactive (enzyme)
chain: MNEKVLVLIVGTNPLPNYVVGSHLKEKYDKFVLIYSEKNDKINQNSTYDYAKKLKEHLNLNDKCIFLPLSDVSNSEKIINDLREKFPSEDFVEVHLNYTGGTKTMVVHIYNFLKEKFKNNKIKFEGSYLDARDYKLVYDYSEEAISLKDTIKIDINTLLSIHLYEDIHFEFYDTYSYKQKFVDSFDKISQEIEKAIKDDKGEDFVKWLEDPFRKIFKGENKLLEKTAKFKKHIEKLLKDNDSSPIVKFNEKTPQFIWDILNAFPEGKKLNDGQKLWIPDDKITNDNLSSRVKDTVEFLNGKWFEWYVYSQIKSELLDRKLKEGEHFGISLKAQKKDSPYFALDIFLINGYQLIGISLTTSSTRELCKLKGFEVIHRVRQIGGDESKAILITGMDKSKTEDLQKDLAYETGSTQKRFVVFGIDDWADIGSKICEEVFK
  stoichiometry N: 2

— article PMC10783487 (Nucleic Acids Research, 2023)
